# Results taken from the nanobody polyreactivity screen of Harvey et al. (2022).
# Assay: yeast display, Sf9 membrane polyspecificity reagent, FACS + sequencing; frameworks hold sequencing errors
# Procedure, shortened: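 In a synthetic yeast display library (Saccharomyces cerevisiae BJ5465), nanobody expression was induced with galactose for 36–48 hours. FACS gates were set low and high (top ~1%) using anti-HA fluorescence for expression and streptavidin fluorescence for binding of the Sf9 membrane reagent. Each polyreactivity label is drawn from the gate of origin.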
row,Sequence,polyreactivity (PSR sort gate)
1,QVQLVESGGGLVQAGGSLRLSCAASGSTFDDYDMGWYRQAPGKEREFVATIDWSGGSTYYADSVKGRFTNSRDNAKNTVYLQMNSLKPEDTAVYYCTALRYVVYFDDDYWGQGTQVTVSS,high polyreactivity
2,QVQLVESGGGLVQAGGSLRLSCAASGSTFDDYVMGWYRQAPGKERELVAGINSRGTSTDYADSVKGRFTISRDNAKNTVYLQMNSLIPEDTAVYYCAADDSHGYDYWGQGTQVTVSS,low polyreactivity
3,QVQLVESGGGLVQAGGSLRLSCAASGSTFDGNAMGWYRQAPGKDRELVAAITWRDGSPSYADSVKGRFTISRDNAKNTVYLQMNSLKPEDTAVYYCNADPGYLDEEYWGQGTQVTVSS,low polyreactivity
4,QVQLVESGGGLVQAGGSLRLSCAASGSTFDGNAMGWYRQAPGKERELVAAITYTTSSTYYADSVKGRFTISRDNAKNTVYLQMTSLKPEDTAVYYWGQGTQVTVSS,low polyreactivity
5,QVQLVESGGGLVQAGGSLRLSCAASGSTFDGNDMGWYRQAPGKERELVAAITIGGGSTYYADSVKGRFTISRDNAKNTVYLQMNSLKPEDTAVYYCAAVYFYSWEGDGDYWGQGTQVTVSS,low polyreactivity
6,QVQLVESGGGLVQAGGSLRLSCAASGSTFDGYAMGWSRQAPGKERELVAAITFDGSSTYYADSVKGRFTISRDNAKNTVYLQMNSLKPEDTAVYYCAAASSYWVLWDDYWGQGTQVTVSS,low polyreactivity
7,QVQLVESGGGLVQAGGSLRLSCAASGSTFDGYAMGWYRQAPGKERELVAAINWGGGSTRYADSVKGRFTISRDNAKNTVYLQMNSVKPEDTAVYYCAARRFAYYFQYLVGGYWGQGTQVTVSS,high polyreactivity
8,QVQLVESGGGLVQAGGSLRLSCAASGSTFDGYTMGWYRQAPGKERELVAAISWRGTSTYYADSVKGRFTISRDNAKNTVYLQMNSLKPEDTAVYYCGAENWKPRVYWIYSGHHGYWGQGTQVTVSS,low polyreactivity
9,QVQLVESGGGLVQAGGSLRLSCAASGSTFDINAMGWYRQAPGKERELVAAINWSGDSTYYADSVKGRFTISRDTAKNTVYLQMNSLKPEDTAVYYCNADTIVAWFDIFEEMDSWGQGTQVTVSS,low polyreactivity
10,QVQLVESGGGLVQAGGSLRLSCAASGSTFDIYAMGWYRQAPGKERELVAAITSGGSTYADSVKGRFTISRDNAKNTVYLQKNSLKPVETAVYYSNADRWFGNYRHLTFLNDYWGQGTQVTVSA,low polyreactivity
11,QVQLVESGGGLVQAGGSLRLSCAASGSTFDIYAMGWYRQAPGKERELVAAITVSGGSTYYADSVKGRFTISRDNAKNTVYLQMNSLKPEDTAVYYCNADWSGWQGWYNYWGQGTQVTVSS,low polyreactivity
12,QVQLVESGGGLVQAGGSLRLSCAASGSTFDKNDMGWYRQAPGRERELVAAITSSGSSTYYADSVKGRFTISRDNAKNTVYLQMNSLKPADTAVYYCAADKYYYDRLSPSGDYWGQGTQVTVSS,low polyreactivity
13,QVQLVESGGGLVQAGGSLRLSCAASGSTFDNTMGWYRQEPGKEKEFVATISWRGGSTYYADSVKGRFTISRDNAKNTVYLQMNSLKPEDTAVYYCAAEVDYRVYWNEVDYWGQGTQVNVSS,low polyreactivity
14,QVQLVESGGGLVQAGGSLRLSCAASGSTFDNYAMGWYRQAPGKERELVAAINSRGGRTYYADSVKGRFTISRDNAKNTVYLQMNSLKPDDTAVYYCAAVGATHRFDYWGQGTQVTVSS,high polyreactivity
15,QVQLVESGGGLVQAGGSLRLSCAASGSTFDNYAMGWYRQAPGKERELVAAITTGVTTYYADSVKGRFTISRDNAKNTVYLQMISLKPEDTAVYYCAADYVSYSQARHEYGYWGQGTQVTVSS,low polyreactivity
16,QVQLVESGGGLVQAGGSLRLSCAASGSTFDPNVMGWYRQAPGKERELVAAISSIGGSTYYADSVKGRFTISRDNAKNTVYLQMNSLNPQDTAVYYCAAGYPRFGYDYWGQGTQVTVSS,high polyreactivity
17,QVQLVESGGGLVQAGGSLRLSCAASGSTFDPYAMGWYRQAPGKERELVAAISRSGASTYADSVKGRFTISRDNAKNTVYLQMNSLKPEDTAVYYCAADSGYPYDYWGQGTQVTVSS,low polyreactivity
18,QVQLVESGGGLVQAGGSLRLSCAASGSTFDPYAMGWYRQAPGKERELVATINTGGDTHYADSVKGRFTISRDNAKNTVYLQMNSLKPEDTAVYYCNADYGKSRWIFDYWGQGTQVTVSS,low polyreactivity
19,QVQLVESGGGLVQAGGSLRLSCAASGSTFDPYGKGWYRQAPGKERELVATITYSSGSTSYADSVKGRFTISRDHAKNTVYLQMNSLKPEDTAVYYCAKKYYTGYGYWGQGTQVTVSS,low polyreactivity
20,QVQLVESGGGLVQAGGSLRLSCAASGSTFDQNGMGWYRQAPGKERELVATISTSAGTYYADSVKGRFTISRDNAKNTVYLQMNSLKPEDTAVYYCNADLGGQYKEFDYWGQGTQVTVSS,low polyreactivity
21,QVQLVESGGGLVQAGGSLRLSCAASGSTFDQYAMGWYRQEPGKERELGAAISGSGGRTYYADSVKGRFTISRDNAKNTVYLQLNSLKPEDTAVYYCNTRAWRWGTDNSWGQGTQVTVSS,high polyreactivity
22,QVQLVESGGGLVQAGGSLRLSCAASGSTFDRNAMGWYRPAPGKERELVAAISWTGTSTRYADSVKGRFTISRDNAKNTVYLHMNSLKPEDTAGYYCAARGYSYYQRLYYWGQGTQVTVSS,high polyreactivity

row,Sequence,polyreactivity (PSR sort gate)
1,QVQLVESGGGLVQAGGSLRLSCAASGSTFDRNVMGWYRQAPGKERELVAAISRVSSTNYSDSVKGRFTISRDNAKNTVYLQMNSLKPEDTAVYYCAADRAGSIMNYWGQGTQVTVSS,low polyreactivity
2,QVQLVESGGGLVQAGGSLRLSCAASGSTFDRYAMGGYIQAPGKERELVAAISWSGGSTYYADSVKGRFTISRDNAKNTVYFQMNSLKPEDTAVYYCASPYYYLHNQRYWGYDYWGQGTQVTVSS,high polyreactivity
3,QVQLVESGGGLVQAGGSLRLSCAASGSTFDRYDMGWYRQAPGKERELVAAITRRGGSTYYADSVKGRFTISRDNAKNTVYLQMNSLKPEDTAVYYCNAKHFAYSVAHPYLRYGYDYWGQGTQVTVSS,low polyreactivity
4,QVQLVESGGGLVQAGGSLRLSCAASGSTFDSNAMGWYRQAPGKERELVAPISGSASRTYYADSVKGRFTISRDNAKNTVYLQMNSLKPEDTAVYYCAAVRYHMYYWGQGTQVTVSS,high polyreactivity
5,QVQLVESGGGLVQAGGSLRLSCAASGSTFDSYAMGWYRPAPGKERELVAAISSGGSTNYADSVKGRFTISRDNAKNTVYLQMYSLKPEDTAVYYCAAYGGHIWWLYRHYGYDYWGQGTQVTVSS,low polyreactivity
6,QVQLVESGGGLVQAGGSLRLSCAASGSTFDTNAMGWSRQAPGKERELVAAISASGGSTYYADSVKGRFTISRDNAKNTVYLQMNSLKPEDTAVYYCAKTYSTRWWGNGGDYWGQGTQVTVSS,high polyreactivity
7,QVQLVESGGGLVQAGGSLRLSCAASGSTFDTNAMGWYRQAPGKELVAAISSAGSTYYADSVKGRFTISRDNAKNTVYLQMNSLKPVATAVYYCAAGNAESPYESLEDDYWGQGTQVTVSS,low polyreactivity
8,QVQLVESGGGLVQAGGSLRLSCAASGSTFDVNAMGWYRQAPGKERELVAAISWNSGSTYYADSVKGRFTISRDNAKNTVYLQMNSLKPEDTAVYYCAATYGTGRRSKYGYWGQGTQVTVSS,high polyreactivity
9,QVQLVESGGGLVQAGGSLRLSCAASGSTFDVYAMGGYRQAPGKERELVAVISSSDGGITYYADSVKGRFTISRDNAKNTVYLQMNSLKPEDTAVYYCNAESFIWLPQYSDYDYWGQGTQVTVSS,high polyreactivity
10,QVQLVESGGGLVQAGGSLRLSCAASGSTFDVYAMGWYRQAPGKERELVAAITQSGGSTYYADSVKGRFTISRDNAKNTVYLQMNSLKTEDTAVYYCAAREWRSFDYWGQGTQVTVSS,low polyreactivity
11,QVQLVESGGGLVQAGGSLRLSCAASGSTFDVYAMGWYRQAPGKERELVAAITSGGTTNYADSVKGRFTISRDNAKNTVYLQMNSLKPEDTAVYYCAKDSRNVYWDYGYWGQGTQVTVSS,low polyreactivity
12,QVQLVESGGGLVQAGGSLRLSCAASGSTFDWYTMGWYRQAPGKERELVAAISSGGRTYYADSVKGRFTISRDNAKNTVYLQMNSLKPEDTAVYYCAVAWRVGITKYGYWGQGTQVTVSS,high polyreactivity
13,QVQLVESGGGLVQAGGSLRLSCAASGSTFDWYVMGWYRKAPGKERELVAAINQGSGSTYYADSVKGRFTISRDNAKNTVYLQMNSLKPEDTAVYYCAADRYGAGYLYWPYDYWGQGTQVTVSS,low polyreactivity
14,QVQLVESGGGLVQAGGSLRLSCAASGSTFDYNAMGWYRQAPGKEMELVAAISRGGNTDYADSVKGRFTISRDNAKNTVYLQMNSLKPEDSAVYYCDADALLEWFDVAYFAYEYWGQGTQVTVSS,low polyreactivity
15,QVQLVESGGGLVQAGGSLRLSCAASGSTFDYNAMGWYRQAPGKERELVAAINSGASTYYADSVKGRFTISRDNAKNTVYLQMNSLKPEDTAVYYCAKDYPYIGDYWGQGTQVTVSS,low polyreactivity
16,QVQLVESGGGLVQAGGSLRLSCAASGSTFDYNAMGWYRQAPGKERELVAAIRWSGDTTYYADSVKGRFTISRDNAKNTVYLQRNSLKPEDTAVYYCANVPIYRYGVWAMNYWGQGTQVTVSS,high polyreactivity
17,QVQLVESGGGLVQAGGSLRLSCAASGSTFDYNAMGWYRQAPGKERELVAAISRGGNTYYADSVKGRFTISRDNAKNTVYLQMNSLKPEDTAVYYCAKDSYGSYRFVRKRQKAYGYWGQGTQVTVSS,low polyreactivity
18,QVQLVESGGGLVQAGGSLRLSCAASGSTFDYYAMGRYRQAPGKERELVAAITTGGRTYYADSVKGRFTISRDNAKNTVYLQMNSLKPEDTAVYYCRERDYWGQGTQVTVSS,low polyreactivity
19,QVQLVESGGGLVQAGGSLRLSCAASGSTFDYYAMGWYRPAPGKERELVAGINRDDGNTYYADSVKGRFTISRDNAKNTVYLQMNSLKPEDTAVYYCAADSSWQGMDYSGQGTQVTVSS,low polyreactivity
20,QVQLVESGGGLVQAGGSLRLSCAASGSTFDYYAMGWYRQAPGKERELVAAISRTGGRTYYADSVKGRFTISRDNAKNTVYLQMNSLKPEDTAVYYCNAVTPIGGGDYDYWGEGTQVTVSS,low polyreactivity
21,QVQLVESGGGLVQAGGSLRLSCAASGSTFDYYAMGWYRQTPGKERELVAAISWSGGSTYYADSVKGRFTISRDNAKNTVYLQMNSLKPEDTAVYYCAAATNWGGEYWGQGTQVTVSS,high polyreactivity
